Results taken from publication PMC9700037 (2022).

Molecular target: T1, biotin-MBP-NLRP1 M1184V (Avi-MBP-tev-NLRP1 M1184V) (human, UniProt Q9C000 1-1473, M1184V, biotin (on the Avi tag, BirA co-expressed))
T1 sequence: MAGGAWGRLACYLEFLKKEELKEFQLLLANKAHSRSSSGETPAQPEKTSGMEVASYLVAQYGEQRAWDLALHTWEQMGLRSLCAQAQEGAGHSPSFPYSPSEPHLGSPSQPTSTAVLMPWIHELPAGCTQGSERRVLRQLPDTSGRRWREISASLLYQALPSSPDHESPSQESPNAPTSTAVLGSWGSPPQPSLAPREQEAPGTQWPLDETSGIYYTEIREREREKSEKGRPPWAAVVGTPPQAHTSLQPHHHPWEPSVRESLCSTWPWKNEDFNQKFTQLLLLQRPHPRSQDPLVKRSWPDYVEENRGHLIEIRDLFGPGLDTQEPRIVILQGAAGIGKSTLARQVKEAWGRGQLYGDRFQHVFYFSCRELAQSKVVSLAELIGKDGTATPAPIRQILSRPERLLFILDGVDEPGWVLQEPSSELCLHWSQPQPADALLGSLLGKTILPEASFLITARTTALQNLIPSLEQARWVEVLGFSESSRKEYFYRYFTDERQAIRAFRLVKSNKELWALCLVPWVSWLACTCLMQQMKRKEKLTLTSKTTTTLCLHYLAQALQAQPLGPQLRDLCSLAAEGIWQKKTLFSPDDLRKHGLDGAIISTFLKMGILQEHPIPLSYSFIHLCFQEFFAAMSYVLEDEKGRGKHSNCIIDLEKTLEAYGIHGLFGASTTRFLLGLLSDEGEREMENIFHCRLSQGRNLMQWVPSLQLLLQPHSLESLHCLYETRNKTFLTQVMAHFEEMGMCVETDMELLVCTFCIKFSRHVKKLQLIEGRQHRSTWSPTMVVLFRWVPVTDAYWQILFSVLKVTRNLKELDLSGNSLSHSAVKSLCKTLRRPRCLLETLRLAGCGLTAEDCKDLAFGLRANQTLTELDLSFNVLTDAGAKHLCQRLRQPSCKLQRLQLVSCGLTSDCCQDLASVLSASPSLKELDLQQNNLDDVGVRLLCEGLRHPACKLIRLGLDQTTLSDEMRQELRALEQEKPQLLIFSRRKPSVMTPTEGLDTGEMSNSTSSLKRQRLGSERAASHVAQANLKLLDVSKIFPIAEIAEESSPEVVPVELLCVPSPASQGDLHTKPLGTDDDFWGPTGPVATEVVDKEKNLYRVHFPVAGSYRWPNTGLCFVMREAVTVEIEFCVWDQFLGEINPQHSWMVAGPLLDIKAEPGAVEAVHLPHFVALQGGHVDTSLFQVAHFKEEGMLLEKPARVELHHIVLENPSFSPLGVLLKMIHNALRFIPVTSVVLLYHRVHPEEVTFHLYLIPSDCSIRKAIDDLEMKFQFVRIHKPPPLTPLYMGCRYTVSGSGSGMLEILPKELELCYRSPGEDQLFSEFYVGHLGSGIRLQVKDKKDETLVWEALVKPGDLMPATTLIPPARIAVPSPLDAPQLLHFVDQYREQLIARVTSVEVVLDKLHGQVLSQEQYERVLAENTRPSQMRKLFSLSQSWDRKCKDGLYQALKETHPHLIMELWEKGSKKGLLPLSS
Assay: SPR; NLRP1 void (high MW) fraction

B1: His6-tev-DPP9 (enzyme)
chain: MATTGTPTADRGDAAATDDPAARFQVQKHSWDGLRSIIHGSRKYSGLIVNKAPHDFQFVQKTDESGPHSHRLYYLGMPYGSRENSLLYSEIPKKVRKEALLLLSWKQMLDHFQATPHHGVYSREEELLRERKRLGVFGITSYDFHSESGLFLFQASNSLFHCRDGGKNGFMVSPMKPLEIKTQCSGPRMDPKICPADPAFFSFINNSDLWVANIETGEERRLTFCHQGLSNVLDDPKSAGVATFVIQEEFDRFTGYWWCPTASWEGSEGLKTLRILYEEVDESEVEVIHVPSPALEERKTDSYRYPRTGSKNPKIALKLAEFQTDSQGKIVSTQEKELVQPFSSLFPKVEYIARAGWTRDGKYAWAMFLDRPQQWLQLVLLPPALFIPSTENEEQRLASARAVPRNVQPYVVYEEVTNVWINVHDIFYPFPQSEGEDELCFLRANECKTGFCHLYKVTAVLKSQGYDWSEPFSPGEDEFKCPIKEEIALTSGEWEVLARHGSKIWVNEETKLVYFQGTKDTPLEHHLYVVSYEAAGEIVRLTTPGFSHSCSMSQNFDMFVSHYSSVSTPPCVHVYKLSGPDDDPLHKQPRFWASMMEAASCPPDYVPPEIFHFHTRSDVRLYGMIYKPHALQPGKKHPTVLFVYGGPQVQLVNNSFKGIKYLRLNTLASLGYAVVVIDGRGSCQRGLRFEGALKNQMGQVEIEDQVEGLQFVAEKYGFIDLSRVAIHGWSYGGFLSLMGLIHKPQVFKVAIAGAPVTVWMAYDTGYTERYMDVPENNQHGYEAGSVALHVEKLPNEPNRLLILHGFLDENVHFFHTNFLVSQLIRAGKPYQLQIYPNERHSIRCPESGEHYEVTLLHFLQEYL
Kd: 113 nM
